Laboratory results as given in patent US20140194025A1, “Production of Highly Concentrated Solutions of Self-Assembling Proteins” (Freudenberg Forschungsdienste KG, priority 2010, published 2014).

Test: Solubility of the hydrophobic protein and its fragments
Assay type: physicochemical

B1: R16 protein: synthetic combination protein formed from silk proteins and resilins, polypeptide sequence SEQ ID NO: 4 (protein)
chain: MASMTGGQQMGRGSMGPGSSAAAAAAAASGPGQGQGQGQGQGGRPSDTYGPGSSAAAAAAAASGPGQGQGQGQGQGGRPSDTYGPGSSAAAAAAAASGPGQGQGQGQGQGGRPSDTYGPGSSAAAAAAAASGPGQGQGQGQGQGGRPSDTYGPGSSAAAAAAAASGPGQGQGQGQGQGGRPSDTYGPGSSAAAAAAAASGPGQGQGQGQGQGGRPSDTYGPGSSAAAAAAAASGPGQGQGQGQGQGGRPSDTYGPGSSAAAAAAAASGPGQGQGQGQGQGGRPSDTYGPGSSAAAAAAAASGPGQGQGQGQGQGGRPSDTYGPGSSAAAAAAAASGPGQGQGQGQGQGGRPSDTYGPGSSAAAAAAAASGPGQGQGQGQGQGGRPSDTYGPGSSAAAAAAAASGPGQGQGQGQGQGGRPSDTYGPGSSAAAAAAAASGPGQGQGQGQGQGGRPSDTYGPGSSAAAAAAAASGPGQGQGQGQGQGGRPSDTYGPGSSAAAAAAAASGPGQGQGQGQGQGGRPSDTYGPGSSAAAAAAAASGPGQGQGQGQGQGGRPSDTYG
Question: For B1, which solubility in water is on record?
Answer: about 1%
